{
  "source": "paper PMC5156543",
  "about": "(Molecular Biology of the Cell, 2016)",
  "binders": {"B1": {"name": "Δ63-125Chs3-GFP (natural protein)", "chain": "MTGLNGDDPDDYYLNLNQDEESLLRSRHSVGSGAPHRQGSLVRPERSRLNNPDNPHFYYAQKDEGVAEDEFDKDGDVDNFEESSTQPINKSIKPLRKETNDTLSFWQMYCYFITFWAPAPILAFCGMPKKERQMAWREKVALISVILYIGAIVAFLTFGFTKTVCSSSKLRLKNNEVSTEFVVINGKAYELDTSSRSGIQDVEVDSDTLYGPWSDAGKDASFLFQNVNGNCHNLITPKSNSSIPHDDDNNLAWYFPCKLKNQDGSSKPNFTVENYAGWNCHTSKEDRDAFYGLKSKADVYFTWDGIKNSSRNLIVYNGDVLDLDLLDWLEKDDVDYPVVFDDLKTSNLQGYDLSLVLSNGHERKIARCLSEIIKVGEVDSKTVGCIASDVVLYVSLVFILSVVIIKFIIACYFRWTVARKQGAYIVDNKTMDKHTNDIEDWSNNIQTKAPLKEVDPHLRPKKYSKKSLGHKRASTFDLLKKHSSKMFQFNESVIDLDTSMSSSLQSSGSYRGMTTMTTQNAWKLSNENKAVHSRNPSTLLPTSSMFWNKATSSPVPGSSLIQSLDSTIIHPDIVQQPPLDFMPYGFPLIHTICFVTCYSEDEEGLRTTLDSLSTTDYPNSHKLLMVVCDGLIKGSGNDKTTPEIALGMMDDFVTPPDEVKPYSYVAVASGSKRHNMAKIYAGFYKYDDSTIPPENQQRVPIITIVKCGTPAEQGAAKPGNRGKRDSQIILMSFLEKITFDERMTQLEFQLLKNIWQITGLMADFYETVLMVDADTKVFPDALTHMVAEMVKDPLIMGLCGETKIANKAQSWVTAIQVFEYYISHHQAKAFESVFGSVTCLPGCFSMYRIKSPKGSDGYWVPVLANPDIVERYSDNVTNTLHKKNLLLLGEDRFLSSLMLKTFPKRKQVFVPKAACKTIAPDKFKVLLSQRRRWINSTVHNLFELVLIRDLCGTFCFSMQFVIGIELIGTMVLPLAICFTIYVIIFAIVSKPTPVITLVLLAIILGLPGLIVVITATRWSYLWWMCVYICALPIWNFVLPSYAYWKFDDFSWGDTRTIAGGNKKAQDENEGEFDHSKIKMRTWREFEREDILNRKEESDSFVA"}},
  "biological_target": "T1, Vps35-3xHA (S. cerevisiae, UniProt P34110 1-944)",
  "T1 sequence": "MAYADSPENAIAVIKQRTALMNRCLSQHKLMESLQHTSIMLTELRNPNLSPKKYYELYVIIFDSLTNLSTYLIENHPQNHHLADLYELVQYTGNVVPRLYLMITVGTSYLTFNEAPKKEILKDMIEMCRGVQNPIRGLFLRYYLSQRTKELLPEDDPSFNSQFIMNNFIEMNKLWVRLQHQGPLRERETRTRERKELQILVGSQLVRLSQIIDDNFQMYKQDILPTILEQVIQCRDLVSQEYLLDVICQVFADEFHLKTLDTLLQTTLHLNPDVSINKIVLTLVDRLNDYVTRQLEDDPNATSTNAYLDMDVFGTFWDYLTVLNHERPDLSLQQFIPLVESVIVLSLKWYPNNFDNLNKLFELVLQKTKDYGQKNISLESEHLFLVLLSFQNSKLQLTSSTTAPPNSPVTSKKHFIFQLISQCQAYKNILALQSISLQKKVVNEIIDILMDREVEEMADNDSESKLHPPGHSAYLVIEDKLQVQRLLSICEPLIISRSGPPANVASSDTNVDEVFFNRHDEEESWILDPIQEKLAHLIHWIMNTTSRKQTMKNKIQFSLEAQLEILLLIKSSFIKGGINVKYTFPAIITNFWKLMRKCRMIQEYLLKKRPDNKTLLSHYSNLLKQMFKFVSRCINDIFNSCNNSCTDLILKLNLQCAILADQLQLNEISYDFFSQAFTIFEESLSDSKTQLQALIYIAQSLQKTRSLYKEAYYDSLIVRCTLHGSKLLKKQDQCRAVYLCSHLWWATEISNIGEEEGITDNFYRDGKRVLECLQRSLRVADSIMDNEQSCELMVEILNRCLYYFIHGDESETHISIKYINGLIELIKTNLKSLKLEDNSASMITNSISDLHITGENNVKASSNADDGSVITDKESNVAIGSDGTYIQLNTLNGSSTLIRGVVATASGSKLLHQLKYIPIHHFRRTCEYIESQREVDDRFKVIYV",
  "experiment": "co-IP",
  "data": [
    {"binder": "B1", "values": [
      {"measurement": "level of coIP relative to wild-type Chs3", "result": "~0.25 of the level with wild-type Chs3"}
    ]}
  ]
}
